Data taken from paper PMC9638876 (EMBO Reports, 2022).

Biological target: GST-tagged Gcn4 (transcription factor Gcn4) (S. cerevisiae, UniProt P03069 1-281)
Assay: pull-down

Sequence of GST-tagged Gcn4 (transcription factor Gcn4) (P03069 whole entry): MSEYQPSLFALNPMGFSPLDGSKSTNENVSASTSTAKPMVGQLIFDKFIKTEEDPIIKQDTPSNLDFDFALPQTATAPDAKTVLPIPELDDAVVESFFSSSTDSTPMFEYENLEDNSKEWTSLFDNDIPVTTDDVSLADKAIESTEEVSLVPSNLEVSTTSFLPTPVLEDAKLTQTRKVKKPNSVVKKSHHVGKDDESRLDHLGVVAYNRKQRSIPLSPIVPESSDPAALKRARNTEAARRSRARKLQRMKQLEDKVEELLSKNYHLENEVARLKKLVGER

B1: His-tagged Rpb9 (RNA polymerase II subunit Rpb9) (natural protein, S. cerevisiae, UniProt P27999 1-122, looked up)
chain: MTTFRFCRDCNNMLYPREDKENNRLLFECRTCSYVEEAGSPLVYRHELITNIGETAGVVQDIGSDPTLPRSDRECPKCHSRENVFFQSQQRRKDTSMVLFFVCLSCSHIFTSDQKNKRTQFS
B1: binds.
